Experimental data as given in article PMC7141811.

How the values were obtained:
[1] = biological target: mEGFP-CaMKII-α (human Ca2+/calmodulin-dependent protein kinase II α, Avitag-linker-mEGFP-linker-CaMKII-α) (human) (UniProt Q9UQM7)
[2] = biological target: mEGFP-CaMKII-α (human Ca2+/calmodulin-dependent protein kinase II α, Avitag-linker-mEGFP-linker-CaMKII-α) (human) (UniProt Q9UQM7); experiment: single-molecule pull-down with TIRF colocalisation; mEGFP-CaMKII-α and mCherry-CaMKII-β* co-transfected in HEK 293T cells (α:β* 3:1 and 1:1); biotinylated holoenzymes captured from 100-200x diluted lysate on streptavidin-coated glass; colocalisation of green and red spots; data not shown

Sequence of UniProt Q9UQM7 (Q9UQM7 whole entry): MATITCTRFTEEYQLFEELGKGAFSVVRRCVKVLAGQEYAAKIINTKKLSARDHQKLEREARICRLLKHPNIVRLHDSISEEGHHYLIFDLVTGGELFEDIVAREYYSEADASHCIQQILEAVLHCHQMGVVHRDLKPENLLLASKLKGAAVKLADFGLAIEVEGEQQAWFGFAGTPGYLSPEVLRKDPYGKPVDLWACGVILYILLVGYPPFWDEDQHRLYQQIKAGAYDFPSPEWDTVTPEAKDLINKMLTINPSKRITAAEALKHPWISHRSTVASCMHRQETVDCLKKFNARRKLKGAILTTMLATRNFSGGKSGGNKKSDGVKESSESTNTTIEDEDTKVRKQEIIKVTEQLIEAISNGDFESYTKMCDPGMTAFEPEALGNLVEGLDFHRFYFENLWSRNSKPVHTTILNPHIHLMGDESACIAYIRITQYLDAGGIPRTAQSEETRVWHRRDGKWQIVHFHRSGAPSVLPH

| EC50 of CaMKII-α activation (autophosphorylation at Thr 286 of glass-immobilised holoenzymes, single-molecule TIRF) by Ca2+/CaM, 20 nM to 5 μM, 100 μM Ca2+, ATP [1] [nM] | percent colocalization of red and green spots (heterooligomeric holoenzymes) [2] [%] | Substance |
| --- | --- | --- |
| 50 to 100 | – | calmodulin (Ca2+/calmodulin) (from UniProt P62157 1-149) (natural protein) |
| – | 80 | mCherry-CaMKII-β* (CaMKII-α in which the kinase-hub linker is replaced by that from CaMKII-β) (enzyme) |
